Measurements from patent US20260209334A1 (MAX PLANCK GESELLSCHAFT ZUR F RDERUNG DER WISSENSCHAFTEN E V, published 2026).
Read-outs that look alike come from different tables or passages of the source. Values belong to the binder of their own block, whether it stands above or below them.

Columns and labels:
[1] = molecular target: T1, human IL-17F homodimer, bacterially expressed construct (residues 39-163 with GSEGE linker) (human, UniProt Q96PD4 39-163); assay: BLI, VHH immobilized, IL-17 as analyte; apparent KD with avidity; µM as printed (Table 3 uses pM)
T1 construct: also called IL-17F dimer
T1 chain: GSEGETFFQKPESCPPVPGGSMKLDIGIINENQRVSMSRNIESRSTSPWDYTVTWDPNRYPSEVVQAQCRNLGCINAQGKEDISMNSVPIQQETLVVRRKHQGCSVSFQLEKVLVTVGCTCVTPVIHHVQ

[2] = molecular target: T2, human IL-17A homodimer, bacterially expressed construct (residues 40-155 with GSEDS spacer) (human, UniProt Q16552 40-155); assay: as above
T2 chain: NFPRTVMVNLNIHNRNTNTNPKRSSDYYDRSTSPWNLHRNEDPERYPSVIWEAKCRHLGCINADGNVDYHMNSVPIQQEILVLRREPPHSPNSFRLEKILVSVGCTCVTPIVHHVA

[3] = molecular target: T3, human IL-17A/F heterodimer, bacterially expressed construct (human, UniProt Q16552 40-155; Q96PD4 39-163, limits assumed); assay: as above
T3 construct: IL-17A unit with N68D, IL-17F unit with N83D and C137S, both with GSEDS spacer; already in the entries

[4] = molecular target: T1, human IL-17F homodimer, bacterially …; assay: BLI, biotinylated VHH immobilized on streptavidin sensors, IL-17 as analyte (10, 20, 40 nM), mass transport fit; apparent value, avidity possible
[5] = molecular target: T2, human IL-17A homodimer, bacterially …; assay: as above
[6] = molecular target: T3, human IL-17A/F heterodimer, bacterially …; assay: as above
[7] = molecular target: T4, recombinant human IL-17F (produced in HEK cells, Proteintech HZ-1116) (human, UniProt Q96PD4 31-163); assay: cell-based or functional assay
T4 sequence (looked up): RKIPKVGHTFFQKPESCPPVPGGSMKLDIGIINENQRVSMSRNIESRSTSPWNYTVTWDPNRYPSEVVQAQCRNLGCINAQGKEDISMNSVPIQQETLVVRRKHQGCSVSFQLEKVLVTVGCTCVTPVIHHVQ

[8] = molecular target: T5, human IL-17A with C-terminal Avi-tag, biotinylated, immobilized on BLI sensors (human, UniProt Q16552 24-155, biotin on the C-terminal Avi-tag (BirA)); assay: BLI, biotinylated IL-17A immobilized on streptavidin sensors, monovalent VHH as analyte (25, 50, 100 nM), mass transport fit
T5 construct: also called biotinylated IL-17A; not shown: C-terminal Avi-tag

[9] = molecular target: recombinant human IL-17A/F (produced in CHO cells, R&D Systems 5837-IL) (human, UniProt Q16552 24-155; Q96PD4 31-163, limits assumed); assay: cell-based or functional assay
Sequence of recombinant human IL-17A/F (produced in CHO cells, R&D Systems 5837-IL) (Q16552 24-155 limits assumed, chain 1 of 2, one chain of several): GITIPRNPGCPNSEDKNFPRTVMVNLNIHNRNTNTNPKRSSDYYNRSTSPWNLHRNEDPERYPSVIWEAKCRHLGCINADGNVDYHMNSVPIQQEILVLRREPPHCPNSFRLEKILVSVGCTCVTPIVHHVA

[10] = molecular target: T4, recombinant human IL-17F (produced in …); assay: cell-based or functional assay; remark: listed apart in the source
[11] = molecular target: T6, recombinant human IL-17A (produced in HEK cells, Proteintech HZ-1113) (human, UniProt Q16552 24-155); assay: cell-based or functional assay
[12] = molecular target: T7, human IL-17F with C-terminal Avi-tag, biotinylated, immobilized on BLI sensors (human, UniProt Q96PD4 31-163, biotin on the C-terminal Avi-tag (BirA)); assay: BLI, biotinylated IL-17F immobilized, monovalent VHH as analyte
T7 construct: also called biotinylated IL-17F; not shown: C-terminal Avi-tag
T7 sequence: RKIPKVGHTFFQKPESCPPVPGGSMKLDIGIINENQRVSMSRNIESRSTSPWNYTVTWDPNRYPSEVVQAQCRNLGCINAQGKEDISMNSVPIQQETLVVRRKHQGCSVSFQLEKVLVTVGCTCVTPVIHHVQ

[13] = molecular target: T6, recombinant human IL-17A (produced in …); assay: cell-based or functional assay; remark: listed apart in the source
[14] = molecular target: T5, human IL-17A with C-terminal Avi-tag, …; assay: BLI, biotinylated IL-17A immobilized, monovalent VHH as analyte
[15] = molecular target: T5, human IL-17A with C-terminal Avi-tag, …; assay: BLI, biotinylated IL-17A immobilized on streptavidin sensors, monovalent VHH as analyte (20, 100 nM), 2:1 heterogenous fit, low affinity component
[16] = molecular target: T5, human IL-17A with C-terminal Avi-tag, …; assay: BLI, biotinylated IL-17A immobilized, monovalent VHH as analyte; 2:1 heterogenous model, high affinity component
[17] = molecular target: T7, human IL-17F with C-terminal Avi-tag, …; assay: BLI, biotinylated IL-17F immobilized, monovalent VHH as analyte; 2:1 heterogenous model, high affinity component
[18] = molecular target: T7, human IL-17F with C-terminal Avi-tag, …; assay: BLI, biotinylated IL-17F immobilized on streptavidin sensors, monovalent VHH as analyte (20, 100 nM), 2:1 heterogenous fit, low affinity component
[19] = molecular target: T1, human IL-17F homodimer, bacterially …; assay: BLI, biotinylated VHH immobilized on streptavidin sensors, IL-17 as analyte (10, 20, 40 nM), mass transport fit; apparent value, avidity possible
[20] = molecular target: T2, human IL-17A homodimer, bacterially …; assay: as above
[21] = molecular target: T3, human IL-17A/F heterodimer, bacterially …; assay: as above; remark: listed apart in the source
[22] = molecular target: T5, human IL-17A with C-terminal Avi-tag, …; assay: BLI, biotinylated IL-17A immobilized on streptavidin sensors, monovalent VHH as analyte (25, 50, 100 nM), 2:1 heterogenous fit, high affinity component

B1: Bm18B05 with C-terminal Avi-Biotin-tag, biotinylated (VHH)
VHH: QVQLVESGGGLVQPGGSLRLSCAVSGRTFSSYAMGWFRRPPGKEREFVAAISWSGGDTKYADFVTDRFTISRDDAKSTVYLQMNSLKPEDTAVYYCNDMPYGLDTRMDEYEYWGQGTQVTVSS
modifications: biotin on the C-terminal Avi-tag (BirA)
notes: not shown: C-terminal Avi-Biotin-tag
- Kd [1]: ≤ 20000 nM
- Kd [2]: ≤ 20000 nM
- Kd [3]: ≤ 20000 nM
- Kd [4]: ≤ 0.01 nM
- koff [4]: ≤ 1e-07 s⁻¹
- kon [4]: 86000 M⁻¹ s⁻¹
- Kd [5]: ≤ 0.01 nM
- koff [5]: ≤ 1e-07 s⁻¹
- kon [5]: 260000 M⁻¹ s⁻¹
- Kd [6]: ≤ 0.01 nM
- koff [6]: ≤ 1e-07 s⁻¹
- kon [6]: 120000 M⁻¹ s⁻¹

B2: Bm18F11 (VHH)
VHH: QVQLVESGGDLVQAGGSLRLSCAASGLTGSSYAMGWFRQAPGKEREFVAAISWISGDTKYTDSVKGRFTMSRDNAKKQVYLEMNSLKPEDTAVYYCNDMPYGLDTRMDEYVYWGQGTQVTVSS
notes: Class A, first generation
- IC50 (read off the curve), SEAP reporter, HEK-Blue IL-17 cells, 0.85 nM IL-17F [7]: ~5 nM
- Kd [8]: 1 nM

B5: Bm44B04 (VHH)
VHH: QVQLVESGGGLVRTGGSLRLSCSVSGDISSQSAMGWYRQVPGRQRELVAMIHTTKGDTYYADSVKGRFTISRINANNTIYLQMNNLKPEDTAIYYCTHNEPGDLYMGQGTQVTVSS
notes: Class B, second generation
- KD2 [15]: 25 nM
- Kd [16]: 0.6 nM
- Kd [17]: 0.35 nM
- Neutralization potency, ranking from 1 = the best to 4 (HEK-Blue IL-17 reporter cells) [9]: 1 rank
- Neutralization potency, ranking from 1 = the best to 4 (HEK-Blue IL-17 reporter cells) [10]: 2 rank
- Neutralization potency, ranking from 1 = the best to 4 (HEK-Blue IL-17 reporter cells) [11]: 2 rank
- KD2 [18]: 20 nM

B7: Bm17B02 with C-terminal Avi-Biotin-tag, biotinylated (VHH)
VHH: QVQLVESGGGLVNTGGSLRLSCVVSGHTSEISAMGWYRQAPGKQRELVALITSRSGDTHYSDSVKGRFSISRDNAKNTMYLQMNSLNPDDTAVYYCVHNEPGHLYMAQGTQVTVSS
modifications: biotin on the C-terminal Avi-tag (BirA)
notes: as for B1
- Kd [1]: ≤ 20000 nM
- Kd [2]: ≤ 20000 nM
- Kd [3]: ≤ 20000 nM
- Kd [19]: 0.02 nM
- koff [19]: 5.4e-05 s⁻¹
- kon [19]: 750000 M⁻¹ s⁻¹
- Kd [20]: ≤ 0.01 nM
- koff [20]: ≤ 1e-07 s⁻¹
- kon [20]: 220000 M⁻¹ s⁻¹
- Kd [21]: ≤ 0.01 nM
- koff [21]: ≤ 1e-07 s⁻¹
- kon [21]: 1.4e+06 M⁻¹ s⁻¹

B8: Bm17B02 (VHH)
VHH: QVQLVESGGGLVNTGGSLRLSCVVSGHTSEISAMGWYRQAPGKQRELVALITSRSGDTHYSDSVKGRFSISRDNAKNTMYLQMNSLNPDDTAVYYCVHNEPGHLYMAQGTQVTVSS
notes: Class B, first generation; For the crystal it was made with a His14-ScSUMO tag that was cleaved off
- Kd [22]: 0.7 nM

Further lines, results first:

- Kd [1]: ≤ 20000 nM
- Kd [2]: ≤ 20000 nM
- Kd [3]: ≤ 20000 nM
- Kd [4]: ≤ 0.01 nM
- koff [4]: ≤ 1e-07 s⁻¹
- kon [4]: 150000 M⁻¹ s⁻¹
- Kd [5]: ≤ 0.01 nM
- koff [5]: ≤ 1e-07 s⁻¹
- kon [5]: 95000 M⁻¹ s⁻¹
- Kd [6]: ≤ 0.01 nM
- koff [6]: ≤ 1e-07 s⁻¹
- kon [6]: 280000 M⁻¹ s⁻¹
B3: Bm18F11 with C-terminal Avi-Biotin-tag, biotinylated (VHH)
VHH: QVQLVESGGDLVQAGGSLRLSCAASGLTGSSYAMGWFRQAPGKEREFVAAISWISGDTKYTDSVKGRFTMSRDNAKKQVYLEMNSLKPEDTAVYYCNDMPYGLDTRMDEYVYWGQGTQVTVSS
modifications: biotin on the C-terminal Avi-tag (BirA)
notes: as for B1

- Neutralization potency, ranking from 1 = the best to 4 (HEK-Blue IL-17 reporter cells) [9]: 1 rank
- Neutralization potency, ranking from 1 = the best to 4 (HEK-Blue IL-17 reporter cells) [10]: 1 rank
- Neutralization potency, ranking from 1 = the best to 4 (HEK-Blue IL-17 reporter cells) [11]: 4 rank
- Kd [12]: 0.1 nM
- IC50 (read off the curve), SEAP reporter, HEK-Blue IL-17 cells, 0.17 nM IL-17A [13]: ~2 nM
- Kd [14]: 2 nM
B4: Bm44C09 (VHH)
VHH: QVQLVESGGGLVQAGGSLRLSCAASGLAVSSYAMGWFRQAPGKEREFVAAISWISGGTKYADSVKDRFTMSRDNAKKQVYLEMNSLKPEDTAVYYCNDMPYGLDTRMDDYKYWGQGIQVTVSS
notes: Class A, second generation

- KD2 [15]: 120 nM
- Kd [16]: 3 nM
- Kd [17]: 1 nM
- Neutralization potency, ranking from 1 = the best to 4 (HEK-Blue IL-17 reporter cells) [9]: 4 rank
- Neutralization potency, ranking from 1 = the best to 4 (HEK-Blue IL-17 reporter cells) [10]: 1 rank
- Neutralization potency, ranking from 1 = the best to 4 (HEK-Blue IL-17 reporter cells) [11]: 3 rank
- KD2 [18]: 40 nM
B6: Bm44G07 (VHH)
VHH: QVQLVQSGGGLVQTGGSLRLSCSVSGDISSQSAMGWYRQVPGRQRELVAMIHTTKGDTYYADSVKDRFTISRINANNTIHLQMNNLKPEDTAIYYCTHNEPGDLYMGQGTQVTVSS
notes: Class B, second generation

- Kd [1]: ≤ 20000 nM
- Kd [2]: ≤ 20000 nM
- Kd [3]: ≤ 20000 nM
- Kd [19]: 0.02 nM
- koff [19]: ≤ 1e-07 s⁻¹
- kon [19]: 500000 M⁻¹ s⁻¹
- Kd [20]: ≤ 0.01 nM
- koff [20]: ≤ 1e-07 s⁻¹
- kon [20]: 160000 M⁻¹ s⁻¹
- Kd [21]: ≤ 0.01 nM
- koff [21]: ≤ 1e-07 s⁻¹
- kon [21]: 510000 M⁻¹ s⁻¹
B9: Re42F08 with C-terminal Avi-Biotin-tag, biotinylated (VHH)
VHH: QVQLVESGGGLVKAGGSLRLSCVVSGHTSEISAMGWYRQAPGKQRELVALITSRSGDTHYSDSVKGRFSISRDNAKNTMYLQMNSLNPDDTAVYYCVHNEPGHLYMAQGTQVTVSS
modifications: biotin on the C-terminal Avi-tag (BirA)
notes: as for B1
